Measurements as given in patent US20180105595A1.

B1: anti-human EGFRvIII WTE-CH12 antibody (antibody, V domains shown)
VH: DVQLQESGPGLVKPSQSLSLTCTVTAYSVTSDYAWNWIRQFPGNKLEWMGYISYSGTTRYNPSLKSRISITRDTSKNQFFLQLNSMTAEDTATYYCSRQGRGFPYWGQGTLVTVSA
VL: DILMTQSPSSMSVSLGDTVSITCHASQDINSNIGWLQQKPGKSFKGLIYHGTNLEDGVPSRFSGSGSGADYSLTISSLESEDFADYYCVQYAQFPWTFGGGTKLEIKR

Columns and labels:
[1] = biological target: 2D8 scFv (anti-WTE)-CD8 hinge region-CD28a-CD28b-CD137-CD3ζ chimeric antigen receptor on T lymphocytes (human) (UniProt P01732); assay: cell-based or functional assay
human EGFRvIII (human) = human EGFRvIII (human) (UniProt P00533); assay: cell-based or functional assay

Sequence of UniProt P01732 (P01732 other isoform, or with tags, fused parts or gaps mutant limits assumed): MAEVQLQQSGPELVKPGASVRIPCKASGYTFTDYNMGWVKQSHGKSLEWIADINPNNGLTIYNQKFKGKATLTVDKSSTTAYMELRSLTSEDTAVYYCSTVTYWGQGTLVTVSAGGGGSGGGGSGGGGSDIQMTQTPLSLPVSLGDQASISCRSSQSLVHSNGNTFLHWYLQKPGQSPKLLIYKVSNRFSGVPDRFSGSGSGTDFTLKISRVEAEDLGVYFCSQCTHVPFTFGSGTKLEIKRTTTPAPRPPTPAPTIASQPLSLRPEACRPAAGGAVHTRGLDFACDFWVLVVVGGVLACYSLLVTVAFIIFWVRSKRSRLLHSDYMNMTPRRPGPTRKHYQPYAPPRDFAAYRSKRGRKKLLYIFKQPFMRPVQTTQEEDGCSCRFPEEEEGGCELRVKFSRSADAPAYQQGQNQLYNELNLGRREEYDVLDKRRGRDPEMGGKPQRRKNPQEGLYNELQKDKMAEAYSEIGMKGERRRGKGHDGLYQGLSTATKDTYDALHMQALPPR

Row | Molecule | reduction of WTE-CH12-mediated cytotoxicity of CAR+ T cells on U87MG-EGFRvIII, free WTE polypeptide at 2-fold molar concentration of WTE-CH12, against Experimental group 1 [1] [%] | reduction of WTE-CH12-mediated cytotoxicity of CAR+ T cells on U87MG-EGFRvIII, free WTE polypeptide at 20-fold molar concentration of WTE-CH12, against Experimental group 1 [1] [%] | cytotoxicity % (LDH release) of anti-WTE CAR+ T cells on Huh-7-EGFRvIII cells at 10^4 ng/ml WTE-CH12, effector:target 3:1 (human EGFRvIII (human)) [%] | cytotoxicity % (LDH release) of anti-WTE CAR+ T cells on U87MG-EGFRvIII cells at 10^4 ng/ml WTE-CH12, effector:target 10:1 (human EGFRvIII (human)) [%]
1 | WTE polypeptide (free) (from UniProt P00533 1189-1210) | 31.1 | 87.8 |  | 
2 | B1 |  |  | 93 | 98.3
